We go through three molecules from patent US20170204167A1 (INSTITUTE FOR RESEARCH IN BIOMEDICINE, published 2017).

Assay [1] deals with HA of H13N6 A/gull/Maryland/704/77 (ELISA antigen) (influenza A virus H13N6 …, UniProt P13103 19-532). Description: ELISA on recombinant or purified HA.
The target of assay [2] is HA of H2N2 A/Singapore/1/57 (influenza A virus H2N2 A/Singapore/1/57, UniProt Q67333 16-525). Description: ELISA on recombinant or purified HA. Background: In an ELISA, binding on a coated surface is turned into a signal by an enzyme label.
For the next assay, the target named is HA of H5N1 A/AH/1/05 (influenza A virus H5N1 A/AH/1/05). In words: cell-based or functional assay.
Assay [3] has as its target T1, HA of H7N1 A/ck/FPV/Rostock/34 (influenza A virus H7N1 …, UniProt P03459 19-563). In words: cell-based or functional assay.
For assay [4], the target named is HA of H7N1 A/ck/IT/13474/99 (influenza A virus H7N1 A/ck/IT/13474/99). In words: cell-based or functional assay.
Another assay deals with HA of H5N1 A/INDO/5/05 (influenza A virus H5N1 A/INDO/5/05). In words: cell-based or functional assay.
Another assay addresses HA of H5N1 A/HK/213/03 (influenza A virus H5N1 A/HK/213/03). In words: cell-based or functional assay.
The target in a further assay is HA of H5N1 A/WS/MONG/05 (influenza A virus H5N1 A/WS/MONG/05). Description: cell-based or functional assay.
A further assay deals with HA of H5N1 A/HK/491/97 (influenza A virus H5N1 A/HK/491/97). In words: cell-based or functional assay.
The next assay has as its target HA of H5 A/VN/1194/04 (influenza A virus H5 A/VN/1194/04). Description: cell-based or functional assay.
Assay [5] deals with T1, HA of H7N1 A/ck/FPV/Rostock/34. Description: cell-based or functional assay. This is another data set of the same source.
Assay [6] has as its target HA of H14N5 A/mallard/Astrakhan/263/82 on transfected 293 cells (influenza A virus H14N5 …, UniProt P26136 18-568). Description: staining of HA-transfected 293 cells.
For assay [7], the target named is HA of H12N5 A/duck/Alberta/60/76 on transfected 293 cells (influenza A virus H12N5 …, UniProt P03446 17-564). In words: staining of HA-transfected 293 cells.
In another assay the target is HA of H1N1 A/PR/8/34 (influenza A virus H1N1 A/PR/8/34, UniProt P03452 18-565). In words: cell-based or functional assay.
The target in assay [8] is HA of H4N6 A/duck/Czechoslovakia/56 (ELISA antigen) (influenza A virus H4N6 …, UniProt P19696 17-527). In words: ELISA on recombinant or purified HA.

B1: FI6 variant 2 (antibody, V domains shown)
VH: QVQLVQSGGGVVQPGRSLRLSCVASGFTFSTYAMHWVRQAPGRGLEWVAVISYDGNYKYYADSVKGRFSISRDNSNNTLHLEMNTLRTEDTALYYCAKDSQLRSLLYFEWLSQGYFDPWGQGTLVTVTS
VL: DIQMTQSPDSLAVSLGARATINCKSSQSVTFNYKNYLAWYQQKPGQPPKVLIYWASARESGVPDRFSGSGSGTDFTLTISSLQAEDVAVYYCQQHYRTPPTFGQGTKVEIK
The term EC50 denotes the concentration giving half of the maximal effect. For B1, the results for the EC50 in assay [1] and in assay [2] were 0.088 µg/mL and 0.029 µg/mL, respectively. Besides, the “Neutralization of HA-pseudotypes (IC90, µg/ml)” value (shortened to “Neutralization of HA-pseudotypes”) was found to be 0.05 µg/mL in the assay with HA of H5N1 A/AH/1/05; 0.09 µg/mL in assay [3]; 1.87 µg/mL in assay [4]; 0.31 µg/mL with HA of H5N1 A/INDO/5/05; 0.02 µg/mL with HA of H5N1 A/HK/213/03; 0.03 µg/mL with HA of H5N1 A/WS/MONG/05. For the same molecule, the “Neutralization of HA-pseudotypes” value with HA of H5N1 A/HK/491/97 turned out to be 0.07 µg/mL. In addition, the “Neutralization H5 A/VN/1194/04 IC50 (µg/ml), pseudovirus” value in the assay with HA of H5 A/VN/1194/04 was found to be 0.0054 µg/mL. In addition, the “Neutralization H7 A/ck/FPV Rostock/34 IC50 (µg/ml), pseudovirus” value in assay [5] amounted to 0.02 µg/mL. Besides, the binding result in assay [6] and in assay [7] was “binds” each time. Besides, the “Neutralization of infectious viruses (IC50, µg/ml)” value in the assay with HA of H1N1 A/PR/8/34 is 2.2 µg/mL.

B2: FI6 variant 3 (antibody, V domains shown)
VH: QVQLVESGGGVVQPGRSLRLSCAASGFTFSTYAMHWVRQAPGKGLEWVAVISYDANYKYYADSVKGRFTISRDNSKNTLYLQMNSLRAEDTAVYYCAKDSQLRSLLYFEWLSQGYFDYWGQGTLVTVSS
VL: not shown
As for B2, the EC50 in assay [1] came out at 0.062 µg/mL; in assay [2] it was 0.021 µg/mL; in [8], 0.185 µg/mL. Besides, the “Neutralization H5 A/VN/1194/04 IC50 (µg/ml), pseudovirus” value with HA of H5 A/VN/1194/04 turned out to be 0.0035 µg/mL. Also, the “Neutralization H7 A/ck/FPV Rostock/34 IC50 (µg/ml), pseudovirus” value in [5] is 0.0274 µg/mL. Moreover, the binding result in assay [6] and in assay [7] was “binds” throughout.

B3: FI28 variant 1 (antibody, V domains shown)
VH: EVQLVESGGGAVQPGESLKLSCAASGFTFSNYGMHWVRQAPGKGLEWVAVISYDGSNKYYADSVKGRFTISRDNSKDTLYLQMNSLRAEDTALFYCAKERPLRLLRYFDWLSGGANDYWGQGTLVTVSS
VL: DIVMTQSPDSLAVSLGERATINCKSSQSVLYSSNNKNYLAWYQQKPGQPPKLLIDWASTRESGVPDRFSGSGSGTDFTLTISNLQVEDVAVYYCQQYYRSPSFGQGTKLEIK
With B3, the “Neutralization of HA-pseudotypes” value with HA of H5N1 A/AH/1/05 was 0.05 µg/mL; in assay [3] it was greater than 100 µg/mL; in assay [4] it was greater than 100 µg/mL; with HA of H5N1 A/INDO/5/05, 0.35 µg/mL; with HA of H5N1 A/HK/213/03, 0.33 µg/mL; with HA of H5N1 A/WS/MONG/05, 0.04 µg/mL. Besides, the “Neutralization of HA-pseudotypes” value with HA of H5N1 A/HK/491/97 was determined as 0.05 µg/mL. In addition, the “Neutralization of infectious viruses (IC50, µg/ml)” value with HA of H1N1 A/PR/8/34 is greater than 100 µg/mL.
